Measured values from article PMC7771966, “Quantitative glycoproteomics reveals cellular substrate selectivity of the ER protein quality control sensors UGGT1 and UGGT2” (eLife, 2020).
One block for each binder: values may come before it.

Target: T1, glutathione S-transferase-calreticulin (GST-CRT) (UniProt P15253 18-418)
T1 construct: calreticulin from the plasmid pGEX-3X-GST-CRT (Baksh and Michalak, 1991; from M. Michalak); also called WT GST-CRT; GST-CRT-WT; source: E. coli BL21, purified (glutathione sepharose)
T1 sequence (looked up): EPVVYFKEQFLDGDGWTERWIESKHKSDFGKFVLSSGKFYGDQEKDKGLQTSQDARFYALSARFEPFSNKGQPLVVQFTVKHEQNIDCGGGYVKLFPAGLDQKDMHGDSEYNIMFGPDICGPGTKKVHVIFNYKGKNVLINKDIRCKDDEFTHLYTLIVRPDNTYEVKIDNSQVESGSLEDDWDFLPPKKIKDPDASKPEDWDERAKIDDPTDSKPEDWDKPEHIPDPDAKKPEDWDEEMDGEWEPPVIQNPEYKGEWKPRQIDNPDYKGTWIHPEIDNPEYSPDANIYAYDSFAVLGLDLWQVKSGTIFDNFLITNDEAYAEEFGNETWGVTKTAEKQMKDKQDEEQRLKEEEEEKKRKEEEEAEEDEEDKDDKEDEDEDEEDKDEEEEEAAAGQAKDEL
Experiment: pull-down; GST-CRT or GST-CRT-Y109A on glutathione beads, 16 h at 4 C with lysate (MNT: 20 mM MES, 100 mM NaCl, 30 mM Tris pH 7.5, 0.5% Triton X-100, protease inhibitors, 20 mM NEM) of ALG6-/-, ALG6/UGGT1-/- or ALG6/UGGT2-/- HEK293-EBNA1-6E cells treated with 500 uM DNJ for 14 h; immunoblot; percent reglucosylation = (GST-CRT lane minus Y109A lane) / total in whole cell lysate x 100
Conditions: one partner purified

percent reglucosylation (bound by GST-CRT minus GST-CRT-Y109A, of the total in the lysate), ALG6/UGGT2-/- cells: 20%
B1: β-hexosaminidase subunit β (HexB), immature ER-localized proHexB (enzyme, human (endogenous in HEK293-EBNA1-6E), UniProt P07686 43-556, looked up)
chain: ARAPSVSAKPGPALWPLPLLVKMTPNLLHLAPENFYISHSPNSTAGPSCTLLEEAFRRYHGYIFGFYKWHHEPAEFQAKTQVQQLLVSITLQSECDAFPNISSDESYTLLVKEPVAVLKANRVWGALRGLETFSQLVYQDSYGTFTINESTIIDSPRFSHRGILIDTSRHYLPVKIILKTLDAMAFNKFNVLHWHIVDDQSFPYQSITFPELSNKGSYSLSHVYTPNDVRMVIEYARLRGIRVLPEFDTPGHTLSWGKGQKDLLTPCYSRQNKLDSFGPINPTLNTTYSFLTTFFKEISEVFPDQFIHLGGDEVEFKCWESNPKIQDFMRQKGFGTDFKKLESFYIQKVLDIIATINKGSIVWQEVFDDKAKLAPGTIVEVWKDSAYPEELSRVTASGFPVILSAPWYLDLISYGQDWRKYYKVEPLDFGGTQKQKQLFIGGEACLWGEYVDATNLTPRLWPRASAVGERLWSSKDVRDMDDAYDRLTRHRCRMVERGIAAQPLYAGYCNHENM
modifications: monoglucosylated N-glycans (reglucosylated by the UGGTs; sites not stated)
notes: beta-hexosaminidase subunit beta, human, endogenous; the immature or ER-localized pro form, not yet processed into three chains; By immunoblot only proHexB was purified by GST-CRT; source: endogenous, lysate of CRISPR-edited HEK293-EBNA1-6E cells (ALG6-/- background), DNJ treated

percent reglucosylation (bound by GST-CRT minus GST-CRT-Y109A, of the total in the lysate), ALG6/UGGT2-/- cells: 12%
B2: ectonucleotide pyrophosphatase/phosphodiesterase family member 1 (ENPP1) (enzyme, human (endogenous in HEK293-EBNA1-6E), UniProt P22413 1-925, looked up)
chain: MERDGCAGGGSRGGEGGRAPREGPAGNGRDRGRSHAAEAPGDPQAAASLLAPMDVGEEPLEKAARARTAKDPNTYKVLSLVLSVCVLTTILGCIFGLKPSCAKEVKSCKGRCFERTFGNCRCDAACVELGNCCLDYQETCIEPEHIWTCNKFRCGEKRLTRSLCACSDDCKDKGDCCINYSSVCQGEKSWVEEPCESINEPQCPAGFETPPTLLFSLDGFRAEYLHTWGGLLPVISKLKKCGTYTKNMRPVYPTKTFPNHYSIVTGLYPESHGIIDNKMYDPKMNASFSLKSKEKFNPEWYKGEPIWVTAKYQGLKSGTFFWPGSDVEINGIFPDIYKMYNGSVPFEERILAVLQWLQLPKDERPHFYTLYLEEPDSSGHSYGPVSSEVIKALQRVDGMVGMLMDGLKELNLHRCLNLILISDHGMEQGSCKKYIYLNKYLGDVKNIKVIYGPAARLRPSDVPDKYYSFNYEGIARNLSCREPNQHFKPYLKHFLPKRLHFAKSDRIEPLTFYLDPQWQLALNPSERKYCGSGFHGSDNVFSNMQALFVGYGPGFKHGIEADTFENIEVYNLMCDLLNLTPAPNNGTHGSLNHLLKNPVYTPKHPKEVHPLVQCPFTRNPRDNLGCSCNPSILPIEDFQTQFNLTVAEEKIIKHETLPYGRPRVLQKENTICLLSQHQFMSGYSQDILMPLWTSYTVDRNDSFSTEDFSNCLYQDFRIPLSPVHKCSFYKNNTKVSYGFLSPPQLNKNSSGIYSEALLTTNIVPMYQSFQVIWRYFHDTLLRKYAEERNGVNVVSGPVFDFDYDGRCDSLENLRQKRRVIRNQEILIPTHFFIVLTSCKDTSQTPLHCENLDTLAFILPHRTDNSESCVHGKHDSSWVEELLMLHRARITDVEHITGLSFYQQRKEPVSDILKLKTHLPTFSQED
modifications: monoglucosylated N-glycans (reglucosylated by the UGGTs; sites not stated)
notes: ectonucleotide pyrophosphatase/phosphodiesterase family member 1, human, endogenous; source: endogenous, lysate of CRISPR-edited HEK293-EBNA1-6E cells (ALG6-/- background), DNJ treated
